To fix the notation:
B1: Azoarcus group I ribozyme (parent)
chain: GUGCCUUGCGCCGGGAAACCACGCAAGGGAUGGUGUCAAAUUCGGCGAAACCUAAGCGCCCGCCCGGGCGUAUGGCAACGCCGAGCCAAGCUUCGGCGCCUGCGCCGAUGAAGGUGUAGAGACUAGACGGCACCCACCUAAGGCAAACGCUAUGGUGAAGGCAUAGUCCAGGGAGUGGCGAAAGUCACACAAACCGG

The variants in this series derive from B1. Put plainly: reverse-splicing fitness (ratio to wild type); higher = more active; in vitro selection; Mg2+ level not given. The gist of the method:
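An in vitro group I ribozyme library with randomized positions was T7-transcribed and gel-purified. In triplicate, 10 pmol RNA in EPPS pH 7.5 was reacted with 50 pmoles of a 30-nt RNA substrate for 1 h at 37 °C across several added MgCl2 levels (1–48 mM), then stopped with EDTA. Products were reverse transcribed from a substrate-complementary primer, PCR-amplified and sequenced (HiSeq 4000). Fitness is a variant's read proportion after selection over that before, normalised to wild type.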
For A111G A120U A145G U176C, the reverse-splicing fitness was 0.386.

Regarding C82U A111G A120U A145C C150A C169U U176A, the reverse-splicing fitness came out at 0.00182.

As to C82A A120U A145U C150U C169G U176G, the reverse-splicing fitness was determined as 0.00197.

On to A111C A120C A145U C150A C169U U176A, for which the reverse-splicing fitness worked out at 0.0195.

For A111C A120C A145U C150A C169U U176G, the reverse-splicing fitness was determined as 0.00632.

Regarding C82U A111G A120U A145G C150A C169U, the reverse-splicing fitness is 0.00348.

Turning to C82A C150G U176C, the reverse-splicing fitness was 0.0393.

For the variant C82A C150G U176A, the reverse-splicing fitness was found to be 0.0245.

In the case of C82A A120U A145U C150A, the reverse-splicing fitness is 0.0126.

Consider C82G A111G A145G C150G C169U U176G, for which the reverse-splicing fitness is 0.00803.

C82A A111C A120U C150U C169U U176A: the reverse-splicing fitness came out at 0.00738.

In the case of A111G A120G A145C C150U C169A U176G, the reverse-splicing fitness came out at 0.00411.

As to A111U A120G A145C U176A, the reverse-splicing fitness was found to be 0.038.

In the case of A111U A120C A145C C150U C169U U176C, the reverse-splicing fitness was found to be 0.0178.

In the case of A120U A145G C169A U176C, the reverse-splicing fitness was determined as 0.00664.

With C82G A111G A120G A145U C169G U176G, the reverse-splicing fitness is 0.0044.

On to C82A A120C A145G C150G, for which the reverse-splicing fitness was 0.0213.

C82A A111C A120C A145G C150G C169U U176C: the reverse-splicing fitness came to 0.0109.

As to A111U A120C A145U C150U, the reverse-splicing fitness came to 0.401.

A111C A120U A145G C150U U176C: the reverse-splicing fitness came to 0.239.

On to C82G A120C A145G C169G U176C, for which the reverse-splicing fitness is 0.0241.

Regarding C82U A111U A120G A145U C150A C169G U176G, the reverse-splicing fitness came to 0.0044.

Consider A111G A120U A145U C169U U176A, for which the reverse-splicing fitness came to 0.0203.

For the variant C82U A111U A145C C150A C169G U176G, the reverse-splicing fitness was 0.00573.

As for C82U A111G C150U C169U U176C, the reverse-splicing fitness came to 0.0133.

For C82A A120U A145G C169A U176A, the reverse-splicing fitness worked out at 0.00307.

Consider A111G A120U A145G C150G C169A U176A, for which the reverse-splicing fitness worked out at 0.00856.

With C82A A111U A120G A145C C169G, the reverse-splicing fitness came out at 0.0105.

On to C82U A111C A120G A145U C150U C169U U176A, for which the reverse-splicing fitness was 0.0158.

C82U A111U A120U A145U C169U U176C: the reverse-splicing fitness is 0.00278.

In the case of C82A A111C A120U A145G C169A U176C, the reverse-splicing fitness worked out at 0.00466.

Turning to C82G A111U A120C C150G C169A, the reverse-splicing fitness is 0.00975.

Consider C82A A111U A120U A145G C169A U176G, for which the reverse-splicing fitness was 0.00239.

In the case of A111U A120U U176G, the reverse-splicing fitness worked out at 0.0683.

With C82A A111C A120C A145C C150A C169G, the reverse-splicing fitness is 0.00813.

Take C82G A111U A120G C150A U176C: the reverse-splicing fitness came out at 0.0195.

As for C82U A111C A120U C169U U176C, the reverse-splicing fitness was determined as 0.00419.

C82U A111G A120U A145U C150G C169G U176A: the reverse-splicing fitness stood at 0.00235.

C82G A111U U176C: the reverse-splicing fitness was found to be 0.259.

For C82A A120U A145C C169G U176C, the reverse-splicing fitness came to 0.00235.

In the case of C82A A111C A145U C150U C169U U176C, the reverse-splicing fitness was determined as 0.0144.

As for C82U A111U A120C A145C C150G C169G U176C, the reverse-splicing fitness stood at 0.00632.

For the variant C82G A111C A120G C150G U176C, the reverse-splicing fitness stood at 0.0153.

As to C82U A111U A120U A145U C150U U176A, the reverse-splicing fitness came to 0.00665.

C150A U176A: the reverse-splicing fitness was determined as 0.406.

Take C82A A145U C150U C169U U176A: the reverse-splicing fitness turned out to be 0.0118.

With A111C A120C A145U C169U, the reverse-splicing fitness amounted to 0.189.

As for C82U A111U A120G C150A C169A U176A, the reverse-splicing fitness is 0.0189.

As for C82U A120U A145U C169U U176G, the reverse-splicing fitness came to 0.00161.

For the variant A111C A120C A145U C150U U176C, the reverse-splicing fitness was found to be 0.174.

C82G A111C A120G C150U C169U U176G: the reverse-splicing fitness worked out at 0.00546.

In the case of C82A A120U A145C C150U U176G, the reverse-splicing fitness is 0.00464.

On to C82U A111U A120U A145U C150G U176C, for which the reverse-splicing fitness was 0.0047.

Regarding C82U A111C A145C C150A C169U U176G, the reverse-splicing fitness was 0.00709.

Turning to C82A A111C A120G A145G C150A C169G U176A, the reverse-splicing fitness is 0.017.

Regarding C82G A111U A120C A145G C150A C169A U176G, the reverse-splicing fitness is 0.00968.

Take C82G A111C A120C A145U C150G U176A: the reverse-splicing fitness came to 0.00549.

Regarding C82A A120G C169G U176G, the reverse-splicing fitness is 0.00368.

C82G A120C A145U C169U: the reverse-splicing fitness was determined as 0.0247.

As for C82U A111G A120U A145U C150A U176C, the reverse-splicing fitness amounted to 0.00416.

Take C82A A111U A120G C150G C169A U176C: the reverse-splicing fitness was 0.00965.

As to C82U A111C A120C C150U U176G, the reverse-splicing fitness amounted to 0.00627.

In the case of C82U A120C A145C C150U C169G, the reverse-splicing fitness is 0.00596.

In the case of C82U A111C A120U A145G C150U U176G, the reverse-splicing fitness was found to be 0.00287.

Turning to C82A A111G A120U C169A, the reverse-splicing fitness stood at 0.00261.

Consider C82G A111G A145G C150A U176A, for which the reverse-splicing fitness was found to be 0.0383.

As to A120U A145C C150A C169G U176C, the reverse-splicing fitness came to 0.0032.

For the variant C82G A111U A120G C169G U176A, the reverse-splicing fitness amounted to 0.0187.

With C82G A120C A145G C150U C169G U176G, the reverse-splicing fitness is 0.00538.

For C82A A111C A120C A145U C169A U176A, the reverse-splicing fitness worked out at 0.0132.

C82A A111C A120U A145C C169U U176C: the reverse-splicing fitness amounted to 0.00326.

As for C82G A111C A120C A145G C150A C169U, the reverse-splicing fitness is 0.0117.

For the variant C82A A111G A145G C169G U176G, the reverse-splicing fitness stood at 0.00515.

C82A A111G A120G A145U C150A C169A U176G: the reverse-splicing fitness worked out at 0.00585.

In the case of A111C A120G A145G C150G C169U U176A, the reverse-splicing fitness is 0.0115.

Regarding C82U A145C U176A, the reverse-splicing fitness was determined as 0.38.

With C82U A111U A120G, the reverse-splicing fitness turned out to be 0.0168.

Consider C82A A111U A120U A145U C150A C169A U176C, for which the reverse-splicing fitness is 0.00269.

In the case of C82U A111G A120C A145U U176A, the reverse-splicing fitness was 0.017.

As for C82A A111U A120G C150A U176G, the reverse-splicing fitness stood at 0.0101.

Take C82A A111C A120C A145C U176C: the reverse-splicing fitness turned out to be 0.0149.

A111G A145G C150G C169A U176G: the reverse-splicing fitness was 0.00761.

Regarding C82G A145C C150G C169U U176C, the reverse-splicing fitness is 0.00852.

On to A111U A120U A145C C169A, for which the reverse-splicing fitness came to 0.00435.

For the origin of these results see the RNAGym collection of RNA variant scans (doi:10.1093/molbev/msab373).
